Test results taken from patent US20210380703A1.

B1: 376_D08 (antibody, V domains shown)
VH: EVQLLESGGGLVQPGGSLRLSCAASGFTFDSYGMNWVRQAPGKGLEWVANINYNSGYKSYADSVKGRFTISRDNSKNTLYLQMNSLRAEDTAVYYCARAATWHDTALDYWGQGTLVTVSS
VL: DIQMTQSPSSLSASVGDRVTITCRASQSILTYLNWYQQKPGKAPKLVIYYANNRPSGVPSRFSGSGSGTDFTLTISSLQPEDFATYYCQQSYSNPLTFGGGTKVEIK
B2: 365_E12 (antibody, V domains shown)
VH: EVQLLESGGGLVQPGGSLRLSCAASGFTFSDYGMNWVRQAPGKGLEWVSNINYNGGYTGYADSVKGRFTISRDNSKNTLYLQMNSLRAEDTAVYYCARGANWHDTALDYWGQGTLVTVSS
VL: DIQMTQSPSSLSASVGDRVTITCRASQSILTYLNWYQQKPGKAPKLLIYAATSRASGVPSRFSGSGSGTDFTLTISSLQPEDFATYYCQQSYETPLTFGGGTKVEIK
B3: 366_F02 (antibody, V domains shown)
VH: EVQLLESGGGLVQPGGSLRLSCAASGFTFSSYGMNWVRQAPGKGLEWVSGINYNSGYTGYADSVKGRFTISRDNSKNTLYLQMNSLRAEDTAVYYCARGANWHDTHLDYWGQGTLVTVSS
VL: DIQMTQSPSSLSASVGDRVTITCRASQSILTYLNWYQQKPGKAPKLVIYAATSRHSGVPSRFSGSGSGTDFTLTISSLQPEDFATYYCQQSYDNPLTFGGGTKVEIK
B4: 365_G09 (antibody, V domains shown)
VH: EVQLLESGGGLVQPGGSLRLSCAASGFTFSSYSMNWVRQAPGKGLEWVSGINYNGGYKSYADSVKGRFTISRDNSKNTLYLQMNSLRAEDTAVYYCARGANWHDTHLDYWGQGTLVTVSS
VL: DIQMTQSPSSLSASVGDRVTITCRASQSIITYLNWYQQKPGKAPKLVIYAATSRASGVPSRFSGSGSGTDFTLTISSLQPEDFATYYCQQSYNSPLTFGGGTKVEIK
B5: 365_C05 (antibody, V domains shown)
VH: EVQLLESGGGLVQPGGSLRLSCAASGFTFSDYSMNWVRQAPGKGLEWVSGINYNGGYKGYADSVKGRFTISRDNSKNTLYLQMNSLRAEDTAVYYCARGANWHDTHLDYWGQGTLVTVSS
VL: DIQMTQSPSSLSASVGDRVTITCRASQSILTYLNWYQQKPGKAPKLLIYAATSRHSGVPSRFSGSGSGTDFTLTISSLQPEDFATYYCQQSYNSPLTFGGGTKVEIK
B6: 366_B05 (antibody, V domains shown)
VH: EVQLLESGGGLVQPGGSLRLSCAASGFTFSDYSMNWVRQAPGKGLEWVSGINYNSGYKSYADSVKGRFTISRDNSKNTLYLQMNSLRAEDTAVYYCARGANWHDTALDYWGQGTLVTVSS
VL: DIQMTQSPSSLSASVGDRVTITCRASQSISSYLNWYQQKPGKAPKLVIYAVTSRASGVPSRFSGSGSGTDFTLTISSLQPEDFATYYCQQSYELPLTFGGGTKVEIK
B7: 376_F09 (antibody, V domains shown)
VH: EVQLLESGGGLVQPGGSLRLSCAASGFTFDSYSMHWVRQAPGKGLEWVSSINYNGGYKSYADSVKGRFTISRDNSKNTLYLQMNSLRAEDTAVYYCARAATWHDTHLDYWGQGTLVTVSS
VL: DIQMTQSPSSLSASVGDRVTITCRASQSILTYVNWYQQKPGKAPKLLIYAVTSRASGVPSRFSGSGSGTDFTLTISSLQPEDFATYYCQQSYDTPLTFGGGTKVEIK
B8: 365_H07 (antibody, V domains shown)
VH: EVQLLESGGGLVQPGGSLRLSCAASGFTFDSYSMNWVRQAPGKGLEWVSGINYNGGYTSYADSVKGRFTISRDNSKNTLYLQMNSLRAEDTAVYYCARGANWHDTHLDYWGQGTLVTVSS
VL: DIQMTQSPSSLSASVGDRVTITCRASQSISTYVNWYQQKPGKAPKLLIYAATSRHSGVPSRFSGSGSGTDFTLTISSLQPEDFATYYCQQSYENPLTFGGGTKVEIK
B9: 365_G04 (antibody, V domains shown)
VH: EVQLLESGGGLVQPGGSLRLSCAASGFTFDSYSMNWVRQAPGKGLEWVAGINYNGGYTGYADSVKGRFTISRDNSKNTLYLQMNSLRAEDTAVYYCARGANWHDTHLDYWGQGTLVTVSS
VL: DIQMTQSPSSLSASVGDRVTITCRASQSIVSYVNWYQQKPGKAPKLVIYAATSLASGVPSRFSGSGSGTDFTLTISSLQPEDFATYYCQQSYDTPLTFGGGTKVEIK
B10: 365_F02 (antibody, V domains shown)
VH: EVQLLESGGGLVQPGGSLRLSCAASGFTFSSYSMNWVRQAPGKGLEWVSGINYNGGYKGYADSVKGRFTISRDNSKNTLYLQMNSLRAEDTAVYYCARGANWHDTHLDYWGQGTLVTVSS
VL: DIQMTQSPSSLSASVGDRVTITCRASQSILTYVNWYQQKPGKAPKLLIYAATSRHSGVPSRFSGSGSGTDFTLTISSLQPEDFATYYCQQSYDTPLTFGGGTKVEIK
B11: 365_F03 (antibody, V domains shown)
VH: EVQLLESGGGLVQPGGSLRLSCAASGFTFDSYSMNWVRQAPGKGLEWVSSINYNGGYTSYADSVKGRFTISRDNSKNTLYLQMNSLRAEDTAVYYCARGANWHDTHLDYWGQGTLVTVSS
VL: DIQMTQSPSSLSASVGDRVTITCRASQSILSYLNWYQQKPGKAPKLLIYAATSRASGVPSRFSGSGSGTDFTLTISSLQPEDFATYYCQQSYDNPLTFGGGTKVEIK
B12: 365_G05 (antibody, V domains shown)
VH: EVQLLESGGGLVQPGGSLRLSCAASGFTFSSYGMNWVRQAPGKGLEWVSGINYNGGYKGYADSVKGRFTISRDNSKNTLYLQMNSLRAEDTAVYYCARGANWHDTALDYWGQGTLVTVSS
VL: DIQMTQSPSSLSASVGDRVTITCRASQSILSYLNWYQQKPGKAPKLVIYAATSLASGVPSRFSGSGSGTDFTLTISSLQPEDFATYYCQQSYENPLTFGGGTKVEIK
B13: 366_B07 (antibody, V domains shown)
VH: EVQLLESGGGLVQPGGSLRLSCAASGFTFSDYGMNWVRQAPGKGLEWVSGINYNGGYTSYADSVKGRFTISRDNSKNTLYLQMNSLRAEDTAVYYCARGANWHDTHLDYWGQGTLVTVSS
VL: DIQMTQSPSSLSASVGDRVTITCRASQSIVSYLNWYQQKPGKAPKLVIYATTSRASGVPSRFSGSGSGTDFTLTISSLQPEDFATYYCQQSYNSPLTFGGGTKVEIK
B14: 366_D03 (antibody, V domains shown)
VH: EVQLLESGGGLVQPGGSLRLSCAASGFTFDSYGMHWVRQAPGKGLEWVSSINYNGGYTGYADSVKGRFTISRDNSKNTLYLQMNSLRAEDTAVYYCARAANWHDTHLDYWGQGTLVTVSS
VL: DIQMTQSPSSLSASVGDRVTITCRASQSILSYVNWYQQKPGKAPKLLIYAATSRASGVPSRFSGSGSGTDFTLTISSLQPEDFATYYCQQSYDLPLTFGGGTKVEIK
B15: 366_A08 (antibody, V domains shown)
VH: EVQLLESGGGLVQPGGSLRLSCAASGFTFDDYSMNWVRQAPGKGLEWVSGINYNSGYKGYADSVKGRFTISRDNSKNTLYLQMNSLRAEDTAVYYCARGANWHDTHLDYWGQGTLVTVSS
VL: DIQMTQSPSSLSASVGDRVTITCRASQSIVSYVNWYQQKPGKAPKLVIYAATSRASGVPSRFSGSGSGTDFTLTISSLQPEDFATYYCQQSYNSPLTFGGGTKVEIK
B16: 367_A06 (antibody, V domains shown)
VH: EVQLLESGGGLVQPGGSLRLSCAASGFTFDSYGMNWVRQAPGKGLEWVASINYNGGYKGYADSVKGRFTISRDNSKNTLYLQMNSLRAEDTAVYYCARGANWHDTHLDYWGQGTLVTVSS
VL: DIQMTQSPSSLSASVGDRVTITCRASQSILSYVNWYQQKPGKAPKLLIYAATSRHSGVPSRFSGSGSGTDFTLTISSLQPEDFATYYCQQSYDTPLTFGGGTKVEIK
B17: 366_A04 (antibody, V domains shown)
VH: EVQLLESGGGLVQPGGSLRLSCAASGFTFSSYGMNWVRQAPGKGLEWVAGINYNGGYTSYADSVKGRFTISRDNSKNTLYLQMNSLRAEDTAVYYCARAANWHDTALDYWGQGTLVTVSS
VL: DIQMTQSPSSLSASVGDRVTITCRASQSILTYLNWYQQKPGKAPKLVIYAATSLASGVPSRFSGSGSGTDFTLTISSLQPEDFATYYCQQSDDSPLTFGGGTKVEIK
B18: 366_E08 (antibody, V domains shown)
VH: EVQLLESGGGLVQPGGSLRLSCAASGFTFSDYSMNWVRQAPGKGLEWVSNINYNGGYTSYADSVKGRFTISRDNSKNTLYLQMNSLRAEDTAVYYCARGANWHDTHLDYWGQGTLVTVSS
VL: DIQMTQSPSSLSASVGDRVTITCRASQSIVTYLNWYQQKPGKAPKLLIYAATSRHSGVPSRFSGSGSGTDFTLTISSLQPEDFATYYCQQSYSNPLTFGGGTKVEIK
B19: 367_A08 (antibody, V domains shown)
VH: EVQLLESGGGLVQPGGSLRLSCAASGFTFDSYGMNWVRQAPGKGLEWVAGINYNGGYTSYADSVKGRFTISRDNSKNTLYLQMNSLRAEDTAVYYCARGANWHDTHLDYWGQGTLVTVSS
VL: DIQMTQSPSSLSASVGDRVTITCRASQSILTYLNWYQQKPGKAPKLLIYAVTSRASGVPSRFSGSGSGTDFTLTISSLQPEDFATYYCQQSYDSPLTFGGGTKVEIK
B20: 367_A10 (antibody, V domains shown)
VH: EVQLLESGGGLVQPGGSLRLSCAASGFTFSSYGMNWVRQAPGKGLEWVAGINYNSGYTSYADSVKGRFTISRDNSKNTLYLQMNSLRAEDTAVYYCARGANWHDTHLDYWGQGTLVTVSS
VL: DIQMTQSPSSLSASVGDRVTITCRASQSIITYVNWYQQKPGKAPKLLIYAATSLASGVPSRFSGSGSGTDFTLTISSLQPEDFATYYCQQSYDLPLTFGGGTKVEIK
B21: 366_D01 (antibody, V domains shown)
VH: EVQLLESGGGLVQPGGSLRLSCAASGFTFSSYGMHWVRQAPGKGLEWVSSINYNGGYTGYADSVKGRFTISRDNSKNTLYLQMNSLRAEDTAVYYCARAANWHDTHLDYWGQGTLVTVSS
VL: DIQMTQSPSSLSASVGDRVTITCRASQSILTYVNWYQQKPGKAPKLLIYAATSRASGVPSRFSGSGSGTDFTLTISSLQPEDFATYYCQQSYENPLTFGGGTKVEIK
B22: 367_A03 (antibody, V domains shown)
VH: EVQLLESGGGLVQPGGSLRLSCAASGFTFDSYGMNWVRQAPGKGLEWVAGINYNGGYTSYADSVKGRFTISRDNSKNTLYLQMNSLRAEDTAVYYCARGANWHDTALDYWGQGTLVTVSS
VL: DIQMTQSPSSLSASVGDRVTITCRASQSILTYVNWYQQKPGKAPKLLIYATTSRHSGVPSRFSGSGSGTDFTLTISSLQPEDFATYYCQQSYDSPLTFGGGTKVEIK

The binders below were run against human Fc (human) (assay: ELISA, negative control).
Work on B1 yielded an optical density of 0.232 OD.
B2 gave an optical density of 0.338 OD.
For B3, the optical density was 0.371 OD.
B4 gave an optical density of 0.288 OD.
Work on B5 yielded an optical density of 0.271 OD.
With B6 the optical density was 0.24 OD.
With B7 the optical density was 0.25 OD.
B8 showed an optical density of 0.33 OD.
With B9 the optical density was 0.295 OD.
In the case of B10, the optical density is reported as 0.326 OD.
In the case of B11, the optical density is reported as 0.347 OD.
For B12, the optical density was 0.319 OD.
For B13, the optical density was 0.215 OD.
For B14, the optical density was 0.318 OD.
For B15, the optical density was 0.243 OD.
Binder B16 has an optical density of 0.378 OD.
With B17 the optical density was 0.319 OD.
Work on B18 yielded an optical density of 0.272 OD.
With B19 the optical density was 0.252 OD.
With B20 the optical density was 0.315 OD.
Work on B21 yielded an optical density of 0.374 OD.
Binder B22 has an optical density of 0.347 OD.
